Results reported in publication PMC13167113.

Legend:
[1] = biological target: CXCR4 endogenous on cells (human (endogenous in Daudi and Jurkat)) (UniProt P61073)
[2] = biological target: CXCR4 endogenous on cells (human (endogenous in Daudi and Jurkat)) (UniProt P61073); remark: listed apart in the source

UniProt P61073, sequence (P61073 whole entry): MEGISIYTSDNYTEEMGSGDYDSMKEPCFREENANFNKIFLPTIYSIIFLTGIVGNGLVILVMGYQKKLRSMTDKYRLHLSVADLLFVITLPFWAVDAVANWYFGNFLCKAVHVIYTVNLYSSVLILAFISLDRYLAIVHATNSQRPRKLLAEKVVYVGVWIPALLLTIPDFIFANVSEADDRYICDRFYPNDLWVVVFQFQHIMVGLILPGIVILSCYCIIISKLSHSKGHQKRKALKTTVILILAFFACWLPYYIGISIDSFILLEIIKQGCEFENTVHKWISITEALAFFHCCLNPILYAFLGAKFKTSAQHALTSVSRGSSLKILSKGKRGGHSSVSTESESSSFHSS

| Substance | SPT-TIRF: percentage of CXCR4-AcGFP particles that are nanoclusters (≥3 receptors/particle) on JKCD4+X4- cells on gp120-VLP-coated coverslips (basal ∼1%; Env(-) VLPs ∼9%) [1] [%] | SPT-TIRF: percentage of CXCR4-AcGFP particles that are nanoclusters (≥3 receptors/particle) on JKCD4+X4- cells on X4-gp120-coated coverslips (basal ∼2%) [2] [%] |
| --- | --- | --- |
| X4 HIV-1 Env (gp120 and gp41) of HXB2 on virus-like particles (from UniProt P04578 33-511; P04578 512-856) (complex) | 29 | – |
| recombinant X4 HIV-1 gp120 (residues 31-507, isolate HXB2) with a C-terminal histidine tag (from UniProt P04578 31-507) (domain or fragment) | – | 18 |
